± gives the uncertainty stated by the source.
B1: Zinc finger MYM-type protein 6, residues 427 to 504; numbered along this chain, O95789 (parent)
chain: KLKCQHCNHLFATKPELLFYKGKMFLFCGKNCSDEYKKKNKVVAMCDYCKLQKIIKETVRFSGVDKPFCSEVCKFLSA

Variants of: B1
Assay: abundance fitness (aPCA) (normalised: wild type 0, dead -1); higher = more abundant; growth selection in yeast, the domain comes from the species named
Conditions: Homo sapiens

Point of comparison: KLKCQHCNHLFATKPELLFYKGKMFLFCGKNSSDEYKKKNKVVAMCDYCKLQKIIKETVRFSGVDKPFCSEVCKFLSA [C32S], abundance fitness -1.01 ± 0.2. Against it:
- KLKCQHCNHLFATKPELLFYKGKMFLFCGTNCSDEYKKKNKVVAMCDYCKLQKIIKETVRFSGVDKPFCSEVCKFLSA [K30T] — higher, -0.123 ± 0.046
- KLKCQHCNHLFATKPELLFYKGKMFLFCGWNCSDEYKKKNKVVAMCDYCKLQKIIKETVRFSGVDKPFCSEVCKFLSA [K30W] — higher, -0.146 ± 0.035
- KLKCQHCNHLFATKPELLFYKGKMFLFCGYNCSDEYKKKNKVVAMCDYCKLQKIIKETVRFSGVDKPFCSEVCKFLSA [K30Y] — higher, -0.028 ± 0.092
- KLKCQHCNHLFATKPELLFYKGKMFLFCGKACSDEYKKKNKVVAMCDYCKLQKIIKETVRFSGVDKPFCSEVCKFLSA [N31A] — higher, -0.078 ± 0.03
- KLKCQHCNHLFATKPELLFYKGKMFLFCGKCCSDEYKKKNKVVAMCDYCKLQKIIKETVRFSGVDKPFCSEVCKFLSA [N31C] — higher, -0.1 ± 0.047
- KLKCQHCNHLFATKPELLFYKGKMFLFCGKECSDEYKKKNKVVAMCDYCKLQKIIKETVRFSGVDKPFCSEVCKFLSA [N31E] — higher, -0.058 ± 0.039
- KLKCQHCNHLFATKPELLFYKGKMFLFCGKFCSDEYKKKNKVVAMCDYCKLQKIIKETVRFSGVDKPFCSEVCKFLSA [N31F] — higher, -0.229 ± 0.07
- KLKCQHCNHLFATKPELLFYKGKMFLFCGKGCSDEYKKKNKVVAMCDYCKLQKIIKETVRFSGVDKPFCSEVCKFLSA [N31G] — higher, -0.026 ± 0.029
- KLKCQHCNHLFATKPELLFYKGKMFLFCGKHCSDEYKKKNKVVAMCDYCKLQKIIKETVRFSGVDKPFCSEVCKFLSA [N31H] — higher, 0.062 ± 0.19
- KLKCQHCNHLFATKPELLFYKGKMFLFCGKLCSDEYKKKNKVVAMCDYCKLQKIIKETVRFSGVDKPFCSEVCKFLSA [N31L] — higher, -0.067 ± 0.035
- KLKCQHCNHLFATKPELLFYKGKMFLFCGKPCSDEYKKKNKVVAMCDYCKLQKIIKETVRFSGVDKPFCSEVCKFLSA [N31P] — higher, -0.018 ± 0.041
- KLKCQHCNHLFATKPELLFYKGKMFLFCGKQCSDEYKKKNKVVAMCDYCKLQKIIKETVRFSGVDKPFCSEVCKFLSA [N31Q] — higher, -0.036 ± 0.035
- KLKCQHCNHLFATKPELLFYKGKMFLFCGKRCSDEYKKKNKVVAMCDYCKLQKIIKETVRFSGVDKPFCSEVCKFLSA [N31R] — higher, 0.012 ± 0.029
- KLKCQHCNHLFATKPELLFYKGKMFLFCGKSCSDEYKKKNKVVAMCDYCKLQKIIKETVRFSGVDKPFCSEVCKFLSA [N31S] — higher, -0.042 ± 0.034
- KLKCQHCNHLFATKPELLFYKGKMFLFCGKVCSDEYKKKNKVVAMCDYCKLQKIIKETVRFSGVDKPFCSEVCKFLSA [N31V] — higher, -0.077 ± 0.031
- KLKCQHCNHLFATKPELLFYKGKMFLFCGKWCSDEYKKKNKVVAMCDYCKLQKIIKETVRFSGVDKPFCSEVCKFLSA [N31W] — higher, -0.054 ± 0.037
- KLKCQHCNHLFATKPELLFYKGKMFLFCGKYCSDEYKKKNKVVAMCDYCKLQKIIKETVRFSGVDKPFCSEVCKFLSA [N31Y] — higher, -0.134 ± 0.24
- KLKCQHCNHLFATKPELLFYKGKMFLFCGKNDSDEYKKKNKVVAMCDYCKLQKIIKETVRFSGVDKPFCSEVCKFLSA [C32D] — higher, -0.607 ± 0.074
- KLKCQHCNHLFATKPELLFYKGKMFLFCGKNESDEYKKKNKVVAMCDYCKLQKIIKETVRFSGVDKPFCSEVCKFLSA [C32E] — the same, -1.01 ± 0.096
- KLKCQHCNHLFATKPELLFYKGKMFLFCGKNGSDEYKKKNKVVAMCDYCKLQKIIKETVRFSGVDKPFCSEVCKFLSA [C32G] — within error, -1.02 ± 0.069
- KLKCQHCNHLFATKPELLFYKGKMFLFCGKNLSDEYKKKNKVVAMCDYCKLQKIIKETVRFSGVDKPFCSEVCKFLSA [C32L] — within error, -1.05 ± 0.22
- KLKCQHCNHLFATKPELLFYKGKMFLFCGKNPSDEYKKKNKVVAMCDYCKLQKIIKETVRFSGVDKPFCSEVCKFLSA [C32P] — within error, -1.05 ± 0.14
- KLKCQHCNHLFATKPELLFYKGKMFLFCGKNQSDEYKKKNKVVAMCDYCKLQKIIKETVRFSGVDKPFCSEVCKFLSA [C32Q] — within error, -0.944 ± 0.35
- KLKCQHCNHLFATKPELLFYKGKMFLFCGKNTSDEYKKKNKVVAMCDYCKLQKIIKETVRFSGVDKPFCSEVCKFLSA [C32T] — within error, -1.29 ± 0.23
- KLKCQHCNHLFATKPELLFYKGKMFLFCGKNVSDEYKKKNKVVAMCDYCKLQKIIKETVRFSGVDKPFCSEVCKFLSA [C32V] — within error, -0.919 ± 0.1
- KLKCQHCNHLFATKPELLFYKGKMFLFCGKNWSDEYKKKNKVVAMCDYCKLQKIIKETVRFSGVDKPFCSEVCKFLSA [C32W] — within error, -0.861 ± 0.088
- KLKCQHCNHLFATKPELLFYKGKMFLFCGKNCADEYKKKNKVVAMCDYCKLQKIIKETVRFSGVDKPFCSEVCKFLSA [S33A] — higher, -0.032 ± 0.031
- KLKCQHCNHLFATKPELLFYKGKMFLFCGKNCCDEYKKKNKVVAMCDYCKLQKIIKETVRFSGVDKPFCSEVCKFLSA [S33C] — higher, -0.077 ± 0.05
- KLKCQHCNHLFATKPELLFYKGKMFLFCGKNCDDEYKKKNKVVAMCDYCKLQKIIKETVRFSGVDKPFCSEVCKFLSA [S33D] — higher, -0.217 ± 0.049
- KLKCQHCNHLFATKPELLFYKGKMFLFCGKNCEDEYKKKNKVVAMCDYCKLQKIIKETVRFSGVDKPFCSEVCKFLSA [S33E] — higher, -0.025 ± 0.039
- KLKCQHCNHLFATKPELLFYKGKMFLFCGKNCFDEYKKKNKVVAMCDYCKLQKIIKETVRFSGVDKPFCSEVCKFLSA [S33F] — higher, -0.289 ± 0.12
- KLKCQHCNHLFATKPELLFYKGKMFLFCGKNCGDEYKKKNKVVAMCDYCKLQKIIKETVRFSGVDKPFCSEVCKFLSA [S33G] — higher, -0.141 ± 0.027
- KLKCQHCNHLFATKPELLFYKGKMFLFCGKNCHDEYKKKNKVVAMCDYCKLQKIIKETVRFSGVDKPFCSEVCKFLSA [S33H] — higher, -0.192 ± 0.081
- KLKCQHCNHLFATKPELLFYKGKMFLFCGKNCLDEYKKKNKVVAMCDYCKLQKIIKETVRFSGVDKPFCSEVCKFLSA [S33L] — higher, -0.089 ± 0.05
